Here are results for 13 molecules from patent publication US6337206B1 (priority 1997, dated 2002).

One assay addresses galanin receptors. As to conditions: hypothalamus, ventral hippocampus, basal forebrain, spinal cord, pancreas, pituitary; read-out: Kd of specific binding; cited from earlier work.
The target in assay [1] is T1, rat GALR2 (clone 27A) (Rattus norvegicus, UniProt O08726).
T1 sequence (O08726 1-372): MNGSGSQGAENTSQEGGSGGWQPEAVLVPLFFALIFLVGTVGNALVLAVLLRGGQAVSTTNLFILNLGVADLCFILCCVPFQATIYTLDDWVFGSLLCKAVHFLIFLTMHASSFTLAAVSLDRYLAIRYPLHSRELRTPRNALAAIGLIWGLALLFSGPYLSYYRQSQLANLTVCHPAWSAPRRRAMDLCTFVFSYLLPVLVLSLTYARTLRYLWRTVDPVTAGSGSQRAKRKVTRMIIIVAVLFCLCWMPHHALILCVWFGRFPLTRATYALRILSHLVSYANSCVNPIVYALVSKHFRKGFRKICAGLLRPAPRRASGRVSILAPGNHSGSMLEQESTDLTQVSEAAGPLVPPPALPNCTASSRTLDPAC
Kind of assay: biochemical.

Assay [2] has as its target T2, rat GALR1 (Rattus norvegicus, UniProt Q62805).
T2 sequence (Q62805 1-346): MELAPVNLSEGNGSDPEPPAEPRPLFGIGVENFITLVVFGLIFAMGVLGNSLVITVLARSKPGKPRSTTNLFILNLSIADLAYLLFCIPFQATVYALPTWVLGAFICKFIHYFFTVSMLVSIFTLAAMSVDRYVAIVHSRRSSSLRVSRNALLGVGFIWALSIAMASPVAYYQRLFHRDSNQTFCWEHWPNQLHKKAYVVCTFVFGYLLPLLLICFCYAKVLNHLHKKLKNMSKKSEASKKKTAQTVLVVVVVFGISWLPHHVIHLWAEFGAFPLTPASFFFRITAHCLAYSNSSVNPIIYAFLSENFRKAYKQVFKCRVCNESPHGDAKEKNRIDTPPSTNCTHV
Kind of assay: biochemical.

Assay [3] addresses T2, rat GALR1.
Experimental: (§1) Membranes were prepared from transfected cells following dissociation in enzyme-free dissociation solution (Specialty Media, Lavallette, N.J.) by disruption in a Dounce homogenizer in ice-cold membrane buffer (10 mM Tris, pH 7.4, 10 mM PMSF, 10 μM phosphoramidon, and 40 μg/ml bacitracin). After a low speed (1100×g for 10 min. at 4° C.) and a high speed centrifugation (38,700×g for 15 min. at 4° C.), membranes were resuspended in buffer and protein concentration determined (Bio-Rad assay kit). […] Reactions were initiated by the addition of membranes and the incubation was allowed to proceed at room temperature for 1 hour. […] Incubations were terminated by rapid filtration through GF/C filters which had been presoaked with 0.1% polyethylamine using a TOMTEC (Orange, Conn.) cell harvester. The results were analyzed using the Prism software package (GraphPad, San Diego, Calif.).
In assay [4] the target is T3, human GALR2 (Homo sapiens, UniProt O43603).
T3 construct: expressed in transfected cells; host or cells: 293-AEQ17 (aequorin-expressing 293 line)
T3 sequence (O43603 1-387): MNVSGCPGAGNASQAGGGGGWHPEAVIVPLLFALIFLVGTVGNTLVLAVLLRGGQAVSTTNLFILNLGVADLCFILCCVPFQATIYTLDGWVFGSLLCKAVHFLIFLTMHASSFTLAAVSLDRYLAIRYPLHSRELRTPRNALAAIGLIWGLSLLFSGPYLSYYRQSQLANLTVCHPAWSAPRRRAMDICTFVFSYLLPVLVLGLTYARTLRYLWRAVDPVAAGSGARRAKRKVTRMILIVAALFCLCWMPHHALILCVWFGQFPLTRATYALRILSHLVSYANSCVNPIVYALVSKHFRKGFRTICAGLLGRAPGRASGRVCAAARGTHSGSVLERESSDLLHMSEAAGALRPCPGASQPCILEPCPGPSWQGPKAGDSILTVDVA
Kind of assay: Aequorin bioluminescence assay in 293-AEQ17 cells, human GALR2. Format: cell-based. The following applies: read-out: EC50, aequorin bioluminescence; human GALR2 in 293-AEQ17 cells.

Assay [5] has as its target T1, rat GALR2 (clone 27A).
Experimental: Mammalian COS-7 cells were transfected by electroporation. COS-7 cells (1×10^7) were suspended in 0.85 ml of Ringers' buffer and 15 mg of the pCI.neo/27A clone was added to a 0.4 mm electroporation cuvette (Bio-Rad, Hercules, Calif.). Current was applied (960 μF, 260 V) using a Bio-Rad Electroporator device and the cells were transferred to a T-180 flask (Corning). Expression was allowed to proceed for 72 hrs.
as §1
In a further assay the target is hGALR1* (human) (UniProt P47211). Kind of assay: competition.
Chain of hGALR1* (human) (P47211 whole entry): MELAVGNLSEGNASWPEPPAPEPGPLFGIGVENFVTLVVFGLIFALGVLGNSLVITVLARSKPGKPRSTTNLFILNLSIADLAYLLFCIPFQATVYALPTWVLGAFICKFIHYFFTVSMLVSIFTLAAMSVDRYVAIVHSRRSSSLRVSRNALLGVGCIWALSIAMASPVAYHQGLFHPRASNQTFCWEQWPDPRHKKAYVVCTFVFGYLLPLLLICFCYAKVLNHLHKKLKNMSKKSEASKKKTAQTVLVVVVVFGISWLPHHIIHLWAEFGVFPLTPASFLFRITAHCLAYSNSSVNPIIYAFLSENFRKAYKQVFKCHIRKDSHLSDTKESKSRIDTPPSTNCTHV
In assay [6] the target is hGALR2 (UniProt O43603). Kind of assay: competition.
The next assay addresses rat GALR2 (UniProt O08726). Briefly: competition.
The target in assay [7] is T4, rat GALR1 (rat, UniProt Q62805 1-346).
T4 sequence: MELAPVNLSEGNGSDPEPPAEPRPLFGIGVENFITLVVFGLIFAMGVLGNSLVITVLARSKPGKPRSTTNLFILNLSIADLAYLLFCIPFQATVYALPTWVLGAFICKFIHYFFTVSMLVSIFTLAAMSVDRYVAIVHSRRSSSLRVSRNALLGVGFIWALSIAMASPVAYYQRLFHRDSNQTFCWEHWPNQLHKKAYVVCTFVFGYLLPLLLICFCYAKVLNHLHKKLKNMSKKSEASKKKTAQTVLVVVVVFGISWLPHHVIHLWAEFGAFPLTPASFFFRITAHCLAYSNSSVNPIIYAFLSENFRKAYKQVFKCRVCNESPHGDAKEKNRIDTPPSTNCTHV
Briefly: competition of 125I-human galanin binding, membranes.

Assay [8] concerns the target T5, rat GALR2 (clone 27A) (rat, UniProt O08726 1-372).
T5 construct: Full-length 372-amino-acid receptor expressed in transiently transfected COS-7 cells; also called pCI.neo/27A
T5 sequence: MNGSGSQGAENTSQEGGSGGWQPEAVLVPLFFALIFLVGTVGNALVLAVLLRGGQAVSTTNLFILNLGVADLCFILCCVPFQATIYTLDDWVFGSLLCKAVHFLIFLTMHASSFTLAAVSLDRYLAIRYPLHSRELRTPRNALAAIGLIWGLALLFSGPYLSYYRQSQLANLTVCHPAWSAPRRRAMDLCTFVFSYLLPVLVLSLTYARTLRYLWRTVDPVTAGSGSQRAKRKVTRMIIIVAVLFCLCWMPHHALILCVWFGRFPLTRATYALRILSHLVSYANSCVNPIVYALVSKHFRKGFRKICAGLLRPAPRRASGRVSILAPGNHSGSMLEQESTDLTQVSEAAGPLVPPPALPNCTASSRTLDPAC
Briefly: competition of 125I-human galanin binding, COS-7 membranes.

For assay [9], the target named is hGALR2 (UniProt O43603). Briefly: cell-based or functional assay.
The target of assay [10] is T6, human GALR2 (UniProt O43603 1-387).
T6 chain: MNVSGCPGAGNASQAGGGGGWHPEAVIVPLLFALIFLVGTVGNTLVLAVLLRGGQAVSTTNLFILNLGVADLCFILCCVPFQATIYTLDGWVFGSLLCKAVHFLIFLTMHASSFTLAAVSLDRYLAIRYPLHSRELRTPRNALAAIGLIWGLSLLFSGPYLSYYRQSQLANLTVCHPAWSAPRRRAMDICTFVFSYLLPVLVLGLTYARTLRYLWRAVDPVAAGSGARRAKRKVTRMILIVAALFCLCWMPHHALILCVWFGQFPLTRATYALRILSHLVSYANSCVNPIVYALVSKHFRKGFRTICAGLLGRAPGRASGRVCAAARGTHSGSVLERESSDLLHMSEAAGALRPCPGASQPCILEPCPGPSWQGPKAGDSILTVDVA
Briefly: 125I-human galanin competition binding.

For assay [11], the target named is T7, human GALR2 (human, UniProt O43603 1-387).
T7 sequence: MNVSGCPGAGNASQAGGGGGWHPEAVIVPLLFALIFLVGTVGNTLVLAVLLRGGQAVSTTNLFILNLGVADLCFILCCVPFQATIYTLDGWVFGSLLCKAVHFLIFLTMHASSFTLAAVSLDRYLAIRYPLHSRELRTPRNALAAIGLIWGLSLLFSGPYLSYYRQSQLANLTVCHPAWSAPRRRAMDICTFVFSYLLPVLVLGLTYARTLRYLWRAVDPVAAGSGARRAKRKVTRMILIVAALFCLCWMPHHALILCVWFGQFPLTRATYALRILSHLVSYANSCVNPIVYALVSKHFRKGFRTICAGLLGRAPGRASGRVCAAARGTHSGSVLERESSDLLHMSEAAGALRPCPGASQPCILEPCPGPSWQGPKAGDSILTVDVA
Briefly: cell-based or functional assay.

Where two headings read alike, the source gives them in different places. No end group written: not given here.

As to 125I-galanin, the Kd at galanin receptors was approximately 1 nM.
As to `CC(C)C[C@H](NC(=O)[C@H](CC(C)C)NC(=O)[C@@H](Cc1c[nH]c2ccccc12)NC(=O)[C@H](Cc1ccccc1)NC(=O)[C@@H](Cc1c[nH]c2ccccc12)NC(=O)[C@H](CCC(N)=O)NC(=O)[C@H](CCC(N)=O)NC(=O)[C@@H]1CCCN1C(=O)[C@H](CCCCN)NC(=O)[C@@H]1CCCN1C(=O)[C@@H](CCCNC(=N)N)NC(=O)[C@@H]1CCCN1C(=O)CNC(=O)[C@H](CC(C)C)NC(=O)[C@H](CC(C)C)NC(=O)[C@H](Cc1ccc(O)cc1)NC(=O)CNC(=O)[C@H](C)NC(=O)[C@H](CO)NC(=O)[C@H](CC(N)=O)NC(=O)[C@H](CC(C)C)NC(=O)[C@@H](NC(=O)[C@H](Cc1c[nH]c2ccccc12)NC(=O)CN)[C@@H](C)O)C(N)=O` [C7], the IC50 is 23 ± 13 nM against rat GALR2 (clone 27A) [1] and 4.9 ± 3 nM on rat GALR1 [2].
For the molecule `CC[C@H](C)[C@H](NC(=O)[C@H](C)NC(=O)[C@H](Cc1c[nH]cn1)NC(=O)[C@@H]1CCCN1C(=O)CNC(=O)[C@H](CC(C)C)NC(=O)[C@H](CC(C)C)NC(=O)[C@H](Cc1ccc(O)cc1)NC(=O)CNC(=O)[C@H](C)NC(=O)[C@H](CO)NC(=O)[C@H](CC(N)=O)NC(=O)[C@H](CC(C)C)NC(=O)[C@@H](N)[C@@H](C)O)C(=O)N[C@@H](CC(=O)O)C(=O)N[C@@H](CC(N)=O)C(=O)N[C@@H](Cc1c[nH]cn1)C(=O)N[C@@H](CCCNC(=N)N)C(=O)N[C@@H](CO)C(=O)N[C@@H](Cc1ccccc1)C(=O)N[C@@H](CO)C(=O)N[C@@H](CC(=O)O)C(=O)N[C@@H](CCCCN)C(=O)N[C@@H](Cc1c[nH]cn1)C(=O)NCC(=O)N[C@@H](CC(C)C)C(=O)N[C@H](C(N)=O)[C@@H](C)O` [rat Gal (3-29)], the IC50 on rat GALR1 [3] and at rat GALR2 (clone 27A) [5] was more than 1000 nM throughout. At human GALR2 [4], the EC50 is more than 10000 nM.
In the case of C7, the IC50 with hGALR1* (human) worked out at 6.3 nM; in the assay with hGALR2 [6], 40.5 nM; with rat GALR2 it was 13.5 nM.
For the molecule M35, the concentration for half-maximal inhibition (IC50) with hGALR1* (human) is 0.04 nM; in the assay with hGALR2 [6], 5.6 nM.
With M35 (peptide), the IC50 amounted to 0.9 nM with rat GALR1 [7] and 0.43 nM in the assay with rat GALR2 (clone 27A) [8]. Further, the EC50, aequorin bioluminescence in 293-AEQ17 cells with hGALR2 [9] is 44 nM.
For the molecule M40, the IC50 came to 0.48 nM with hGALR1* (human), 9.5 nM in the assay with hGALR2 [6] and 1.8 nM with rat GALR2.
For M40 (peptide), the IC50 came out at 0.01 nM with rat GALR1 [7] and 1.9 nM with rat GALR2 (clone 27A) [8]. For the same molecule, in the assay with hGALR2 [9], the EC50, aequorin bioluminescence in 293-AEQ17 cells came to 8.8 nM.
Take galantide(M15) (peptide): the IC50 in the assay with rat GALR1 [7] came out at 1 nM. That is a single-digit nanomolar value.

B1: rat galanin (peptide)
peptide: GWTLNSAGYLLGPHAIDNHRSFSDKHGLT
modifications: ends and bridges not checked
Turning to B1, the IC50 in the assay with human GALR2 [10] was 1.6 nM.

B2: rat Gal (3-29) (peptide)
peptide: TLNSAGYLLGPHAIDNHRSFSDKHGLT
Regarding B2, the “EC50, aequorin bioluminescence in 293-AEQ17 cells” value with human GALR2 [11] is more than 10000 nM. In the assay with human GALR2 [10], this molecule registered an IC50 of more than 1000 nM.

B3: human Gal (1-19) (peptide, UniProt P22466 33-51, looked up)
peptide: GWTLNSAGYLLGPHAVGNH
notes: range 1-19; also called hGal (1-19)
The molecule B3 had an IC50 with rat GALR1 [7] of 0.86 nM.

B4: rat Gal (2-29) (peptide, UniProt P10683 34-61, looked up)
peptide: WTLNSAGYLLGPHAIDNHRSFSDKHGLT
notes: range 2-29; also called rGAL(2-29)
Turning to B4, the “EC50, aequorin bioluminescence in 293-AEQ17 cells” value in the assay with human GALR2 [11] was found to be 31 nM. Further, the IC50 with rat GALR2 (clone 27A) [8] was found to be 2.9 nM; with human GALR2 [10], 15.4 nM.

One may read the Kd as a measure of binding affinity in units of concentration. In general, IC50 refers to the concentration needed to halve the response being measured. A word on the EC50: it is the concentration that produces a half-maximal response.
